The source of these data is article PMC6529632, “Robust Stoichiometry of FliW-CsrA Governs Flagellin Homeostasis and Cytoplasmic Organization in Bacillus subtilis” (mBio, 2019).

Substitutions are numbered along the chain they refer to. Names may count otherwise.

For orientation: stoichiometry N means a count of units in the complex or per binding partner.

Data set [1] deals with T1, CsrA-WT-His6 (Bacillus subtilis (3610?)) (UniProt P33911).
T1 sequence: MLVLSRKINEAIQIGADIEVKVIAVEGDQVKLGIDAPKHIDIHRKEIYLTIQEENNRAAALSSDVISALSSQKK
In words: EMSA. The note with it: 40 mM Tris-HCl pH 7.5, 4 mM MgCl2, 100 mM KCl, 20 ng/ul yeast RNA, 20 mM DTT, 10% glycerol, 4 U RNase inhibitor, 20 pM RNA, 37 C 30 min (FliW added for a …). Background: A gel shift assay detects complexes by their altered migration in electrophoresis.

The target of data set [2] is T2, CsrA-N55D-strep N55D (Bacillus subtilis (3610?)) (UniProt P33911).
T2 sequence: T1 sequence with N55D
Put plainly: EMSA. The conditions noted are these: 40 mM Tris-HCl pH 7.5, 4 mM MgCl2, 100 mM KCl, 20 ng/ul yeast RNA, 20 mM DTT, 10% glycerol, 4 U RNase inhibitor, 20 pM RNA, 37 C 30 min (FliW added for a …).

Data set [3] concerns the target T3, FliW (Bacillus subtilis (3610?)) (UniProt P96503).
T3 sequence: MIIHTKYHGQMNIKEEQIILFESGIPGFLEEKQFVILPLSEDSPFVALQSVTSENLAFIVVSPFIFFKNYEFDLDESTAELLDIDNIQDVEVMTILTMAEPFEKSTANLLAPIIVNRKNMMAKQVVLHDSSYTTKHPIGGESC
Put plainly: EMSA. The conditions noted are these: 40 mM Tris-HCl pH 7.5, 4 mM MgCl2, 100 mM KCl, 20 ng/ul yeast RNA, 20 mM DTT, 10% glycerol, 4 U RNase inhibitor, 20 pM RNA, 37 C 30 min (FliW added for a …).

In data set [4] the target is T4, CsrA-Hetero (CsrA-WT-His6/CsrA-N55D-strep) N55D (Bacillus subtilis (3610?)) (UniProt P33911+P33911).
T4 sequence 1: T1 sequence
T4 sequence 2: T1 sequence with N55D
In words: EMSA. The conditions noted are these: 40 mM Tris-HCl pH 7.5, 4 mM MgCl2, 100 mM KCl, 20 ng/ul yeast RNA, 20 mM DTT, 10% glycerol, 4 U RNase inhibitor, 20 pM RNA, 37 C 30 min (FliW added for a …).

Data set [5] has as its system CsrA-WT-His6 (Bacillus subtilis (3610?)). In words: EMSA. The conditions noted are these: apparent Kd; main text gives 290 nM; 40 mM Tris-HCl pH 7.5, 4 mM MgCl2, 100 mM KCl, 20 ng/ul yeast RNA, 20 mM DTT, 10% glycerol, 4 U RNase inhibitor, 20 pM RNA, 37 C 30 min (FliW added for a …).
For data set [6], the system named is CsrA-Hetero (CsrA-WT-His6/CsrA-N55D-strep) (Bacillus subtilis (3610?)). Put plainly: EMSA. The conditions noted are these: apparent Kd; main text gives 460 nM; 40 mM Tris-HCl pH 7.5, 4 mM MgCl2, 100 mM KCl, 20 ng/ul yeast RNA, 20 mM DTT, 10% glycerol, 4 U RNase inhibitor, 20 pM RNA, 37 C 30 min (FliW added for a …).
In data set [7] the test system is FliW (Bacillus subtilis (3610?)). In words: EMSA. The note with it: apparent Kd; FliW alone; 40 mM Tris-HCl pH 7.5, 4 mM MgCl2, 100 mM KCl, 20 ng/ul yeast RNA, 20 mM DTT, 10% glycerol, 4 U RNase inhibitor, 20 pM RNA, 37 C 30 min (FliW added for a …).
Data set [8] concerns CsrA-N55D-strep (Bacillus subtilis (3610?)). Put plainly: EMSA. The note with it: apparent Kd; 40 mM Tris-HCl pH 7.5, 4 mM MgCl2, 100 mM KCl, 20 ng/ul yeast RNA, 20 mM DTT, 10% glycerol, 4 U RNase inhibitor, 20 pM RNA, 37 C 30 min (FliW added for a …).
Data set [9] addresses T5, CsrA^N55D-strep (monomer co-expressed with CsrA^WT-His6) (Bacillus subtilis, UniProt P33911 1-74, N55D).
T5 construct: CsrA of Bacillus subtilis with N55D; Same chain as in m2 and m3; Written as a single chain for the pair row of the heterodimer; also called CsrA^N55D-strep tag; source: Rosetta-gami E. coli, co-expressed with CsrA^WT-His6 from dual-expression vector pRO76
T5 sequence (looked up): T1 sequence with N55D
Put plainly: sequential affinity co-purification with SDS-PAGE; both chains co-expressed from one vector in E. coli; Ni-NTA by the His6 tag, then Strep-Tactin by the Strep tag, then size exclusion; Coomassie-stained denaturing gel, densitometry. The note with it: partners not purified.

With “GGUAGCCGGGAGGAGGCGCAAAAGACUCAGCCAGUUACAAAAUAAGGGCACAAGGACGUGCCUUAACAACAUAUUCAGGGAGGAACAAAACAAUGAGAAUU [hag 5' UTR transcript +1 to +100]”, the Kd was 287 nM in data set [1], 960 nM in data set [2], 1110 nM in data set [3] and 458 nM in data set [4]. In [2], the binding result is “binds”.
On to hag 5' UTR transcript +1 to +100, for which the Kd in [5] is 287 nM; in data set [6], 458 nM; in data set [7] it was 1110 nM; in [8], 960 nM.

B1: CsrA^WT-His6 (monomer co-expressed with CsrA^N55D-strep) (natural protein, Bacillus subtilis, UniProt P33911 1-74, looked up)
chain: T1 sequence
notes: CsrA of Bacillus subtilis, wild type, amplified from pCSB9; Same chain as in m1 and m3; Written as a single chain for the pair row of the heterodimer; also called CsrA-His6; source: Rosetta-gami E. coli, co-expressed with CsrA^N55D-strep from dual-expression vector pRO76
Regarding B1, the “stoichiometry N” value in data set [9] amounted to 0.88.
